Assays:
S. aureus [1] = assay: Therapy of established S. aureus mastitis infections; type: in vivo, S. aureus (in lactating Holstein dairy cattle)
Method: The percentage of quarters clearing the infection for greater than 1 milking (RESPONDING), as compared to the percentage of quarters which actually cure their infections (CURE) is a measure of the failure of the host cells to kill the bacteria. The relapse rate is the greatest for r-BoIL-2 (combined relapse rate of 40% for the 10 mg dose X's 3). […] Furthermore, if activation of the host cells is effective, as indicated by the r-BoIL-2 and r-BoGM-CSF, then a combination therapy with r-BoIL-1 or antibiotics is useful.
^1 S. aureus infections are established 2-3 weeks prior to treatment.
Treatments are administered after the AM or PM milking by 1-3 successive
intramammary infusions. A total of 120 mammary glands from 28 different
lactating Holstein dairy cattle are used. Recombinant bovine
interleukin1(IL-1) and interleukin2(IL-2) are obtained from IMMUNEX Corp.
Seattle, WA. Na cephapirin is prepared is PBS; and CefaLak ®
(BristolMeyers) is used according to package# insert instructions.
^2 Cytokines are infused intramammary through the teat canal after th
PM milking at the indicated intervals. The total dose is delivered in a
total volume of 10 ml of sterile PBS. The biological activity of rBoIL-1
and rBoIL-2 is 32,000 Units/μg and 22,000 Units/μg, respectively. A
total dose per infusion 200 mg of Na cephapirin and CefaLak ® is
administered after consecutive PM and AM milkings, according to described
^3 The % RESPONDING = quarters which transiently (> 1 milking) are
free of S. aureus divided by the total number of quarters treated.
^4 The % CURED QUARTERS = # of quarters which clear their infection
and remain free of S. aureus divided by the total number of quarters
treated. Infections are considered to have relapsed if there are > 1 CFUs
from three consecutive AM milkings, or > 20 CFUs for two consecutive afte
therapy at anytime during the 14 day monitoring period.
^5 The % RELAPSE = [1 - {[…]}] ×

Bovine Mammary Gland = assay: Dose response of bovine mammary gland to intramammary infusion: somatic cell influx into milk; type: in vivo, bovine (Holstein dairy cattle)
Method: FIG. 1: Dose Response of Bovine Mammary Gland to Intramammary Infusion of Recombinant Cytokines
Five fold serial dilutions of r-BolL-1 (recombinant bovine interleukin-1) from 312.5 μg to […]: r-BoIL-2 (recombinant bovine interleukin-2) from 40 mg to 0.1 mg: and r-BoGM-CSF (recombinant bovine granulocyte macrophage colony stimulating factor) from 0.2 mg to […] are administered at time 0 into 3-4 mammary glands from normal lactating Holstein dairy cattle. A total of 54 mammary gland quarters, 3-4 per group, are infused through the teat canal with various concentrations of recombinant bovine cytokines after the morning milking. Milk samples are collected and the number of viable somatic cells counted on a Coulter® ZM with a C256 Channelyzer. The data is expressed as the somatic cell count per ml of milk
These doses are guidelines for quantitative induction of somatic cells, but significant beneficial qualitative changes can be induced with lower doses. The specific biological activity for r-BoIL-1 as a chemoattractant is approximately 10,000 fold greater than r-BoIL-2, although the in vitro specific bioactivities are equivalent. Active IL-2 inhibition or decreased biostability in milk might explain this discrepancy. The peak number of cells after r-BoIL-1 infusion with a maximal tolerable dose is 4-5 fold greater than r-BoIL-2. The kinetics of PMN migration into the mammary gland is such that migration occurs 8- 24 hours sooner for r-BoIL-1 infusions […] the BolL-2 infusion depending upon the dose. The dominant cell type after r-BoIL-1 or r-BoIL-2 infusion is PMNs.

[2] = Specific biological activity of recombinant cytokine protein; conditions: mass of protein
milk PMNs [3] = assay: Phagocytosis of fluorescent beads by milk PMNs (flow cytometry) after intramammary infusion; type: in vivo, bovine (Holstein dairy cattle); conditions: FIG. 2H
Method: (§1) FIGS. 2(A-I): Quantity and Quality of Milk PMNs from Mammary Glands Infused with r-BolL-1 or r-BoIL-2
(§2) A total of 12 mammary glands from normal lactating Holstein dairy cattle are infused through the teat canal with either 200 μg of r-BoIL-1; 2 mg of r-BoIL-2; or 1 mg of r-BoGM-CSF. Milk samples are collected and the number of viable somatic cells counted on a Coulter® ZM with a C256 Channelyzer. The data is expressed as the somatic cell count per ml of milk sampled at 16, 40, 64 and 88 hours after infusion for r-BoIL-1 (A); r-BoIL-2 (D); or r-BoGM-CSF(G). The total percentage of phagocytosis by milk PMNs (polymorphonuclear cells) is quantitatively measured by flow cytometry by measuring the percentage of cells ingesting 2μ fluorescent beads for r-BoIL-1 (B); r-BoIL-2(E); or r-BoGM-CSF(H). The total population is first gated by forward angle light scatter, FALS and 90° light scatter to only consider viable polymorphonuclear cells. The induction of superoxide after PMA (520.eta.g)stimulation is also monitored using a whole cell cytochrome-c reduction assay, for r-BoIL-1 (C); r-BoIL-2(F); or r-BoGM-CSF(I). PMNs from untreated milk could not be induced to produce superoxide, while peripheral blood PMNs are inducible in a range of 5-15 .eta.M O2 /Minute/10^7 PMNs.

S. aureus [4] = assay: Prevention of S. aureus mastitis in lactating animals; type: in vivo, S. aureus (in lactating Holstein dairy cattle); conditions: for % CONTROL / % INFECTED: 1 mg, vs Control 2 (30 CFUs)
Source text: This maximal protection correlates with the peak quantitative biological response for this cytokine. […] This also correlates with the peak quantitative biological response of this cytokine and also marks the qualitative increase in phagocytosis and inducible superoxide, FIG. 2D & 2E.
^1 Single intramammary infusion administered after the PM milking. A
total of 100 mammary glands from 22 different lactating Holstein dairy
^2 All glands are free of bacteria on 5 successive samples after the
AM milking prior to the initial infusion.
^3 The total dose in mass of protein is indicated. The biological
^4 Infusions of cytokines were administerd simultaneously with S.
aureus 0, 24 or 48 hours proir to challenge with 30-200 CFUs of S.
^5 Individual quarters are considered cured if the milk samples remai
free of S. aureus. for 14 days after intramammary challenge with of S.
^6 The % Control = (1 - {% Infected After Therapy divided by Infected
in Control Quarters)} × 100.
*Quarters in Control 1 are challenged with 250 CFUs of S. aureus..
Quarters in Control 2 are challenged with 30 CFUs of S. aureus.

milk PMNs [5] = assay: Quantity of milk PMNs after intramammary infusion; type: in vivo, bovine (Holstein dairy cattle)
Method: as §1, §2

milk PMNs [6] = assay: Inducible superoxide of milk PMNs after PMA stimulation (cytochrome-c reduction); type: in vivo, bovine (Holstein dairy cattle); conditions: r-BoGM-CSF, vs resident PMNs, FIG. 2I
Method: as §1, §2

Molecule	% CURES (S. aureus [1]; 200 mg, interval 12 hrs)	% RELAPSE (S. aureus [1]; 200 mg, interval 12 hrs)	% RESPONSE (S. aureus [1]; 200 mg, interval 12 hrs)	relapse rate (S. aureus [1]; as quoted in text of Example 5)	influx of cells into the mammary gland (Bovine Mammary Gland; intramammary infusion of up to 5 mg)	infiltration of somatic cells into the milk (Bovine Mammary Gland; intramammary infusion, lactating cattle, FIG. 1)	biological activity [2]	phagocytic ability of the cells in the milk of treated glands (milk PMNs [3]; 24 and 48 hours)	percent of cells which are phagocytic (milk PMNs [3]; r-BoGM-CSF)	increase in phagocytosis, duration (milk PMNs [3]; r-BoGM-CSF, up to 112 hrs)	% CONTROL (S. aureus [4]; -24 hrs)	% INFECTED (S. aureus [4]; -24 hrs)	% CONTROL (S. aureus [4]; -48 hrs)	% INFECTED (S. aureus [4]; -48 hrs)	protection from S. aureus (S. aureus [4]; administered 24 and 48 hours prior to challenge)	protection from subsequent S. aureus challenge (S. aureus [4]; intramammary infusion, Table 1)	quantitative changes in milk PMNs (milk PMNs [5]; as summarised in Example 4)	quantitative increase in milk PMNs (milk PMNs [5]; even with a 5 mg intramammary dose, FIG. 2G)	inducible superoxide production (milk PMNs [6])
CC(=O)OCC1=C(C(=O)O)N2C(=O)[C@@H](NC(=O)CSc3ccncc3)[C@H]2SC1 [Na Cephapirin, sodium cephapirin, reference compound]	42%	51%	86%	57%															
recombinant bovine granulocyte macrophage colony stimulating factor (protein, UniProt P11052 18-143, looked up) Granulocyte-macrophage …: APTRPPNTATRPWQHVDAIKEALSLLNHSSDTDAVMNDTEVVSEKFDSQEPTCLQTRLKLYKNGLQGSLTSLMGSLTMMATHYEKHCPPTPETSCGTQFISFKNFKEDLKEFLFIIPFDCWEPAQK					fails to elicit any significant influx of cells into the mammary gland	no significant chemoattractant activity	38,000 Units/μg	increase phagocytic ability	enhanced	maintained above pre-infusion levels for up to 112 hrs	76%	20%	76%	20%	good protection from S. aureus	capable of protecting the host from subsequent S. aureus challenge	only minor quantitative changes in milk PMNs	fails to elicit any significant quantitative increase in milk PMNs	increased over the resident PMNs

— patent publication US5336488A, “Method of treating or preventing mastitis in animals with involuting mammary glands by administering recombinant cytokines” (American Cyanamid Company, priority 1992, dated 1994)
